In US20130071424A1:

Assays:
[1] = biological target: AIDSVAX recombinant gp120 immunogen MN (AIDSVAX subtype B) (HIV-1 subtype B strain MN) (UniProt P05877); test: ELISA, gp120 coated at 3 µg/ml, antibody titrated 0.002-10 µg/ml
[2] = biological target: AIDSVAX recombinant gp120 immunogen A244 (AIDSVAX subtype E) (HIV-1 subtype E (CRF01_AE) strain A244); test: as above

Substance: human anti-V2 monoclonal antibody 2158
- EC50 [1]: 3.9 ng/mL
- EC50 [2]: 4.1 ng/mL

Substance: human anti-V2 monoclonal antibody 697-D
- EC50 [1]: 5.5 ng/mL
- EC50 [2]: 5.7 ng/mL
